We go through seven molecules from patent publication US20080267974A1 (SCHERING, published 2008).

Read-outs that look alike come from different tables or passages of the source.

Assay [1] addresses T1, tumor necrosis factor alpha (TNFα) (human, UniProt P01375 77-233). In words: affinity by IC50 ELISA (so named in paragraph 380).
Assay [2] addresses T1, tumor necrosis factor alpha (TNFα). In words: affinity by IC50 ELISA (so named in paragraph 380). This is another data set of the same source.
Assay [3] has the same target. The assay is described as follows: cell-based or functional assay.

T1 sequence (P01375 77-233 limits assumed): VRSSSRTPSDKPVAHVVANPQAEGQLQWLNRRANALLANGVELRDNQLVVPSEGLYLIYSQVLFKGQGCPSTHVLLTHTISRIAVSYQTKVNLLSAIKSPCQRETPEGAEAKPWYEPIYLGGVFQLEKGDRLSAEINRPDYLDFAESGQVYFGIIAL

B1: MAb 695 (antibody, V domains shown)
VH: EVQLLESGGGLIQPGGSLRLSCAASGFTVSSNYMSWVRQAPGKGLEWVSVIYSGGRTYYADSVKGRFTISRDSSKNTLYLQMNSLRAEDTAVYYCARNYYGSTYDYWGQGTLVTVSS
VL: EIVLTQSPVTLSVPPGERASLSCRASQNIYTAVAWYQQKPGQAPRLLIYGASTRATGIPARFSGGGSGTDYTLTISSLESEDFAVYHCQQYHSWPLTFGGGTKLEIK
notes: also called 121 D11; H1192/L250
For the molecule B1, the Affinity in assay [1] and in assay [2] was 0.6 nM each time. The “IC50, TNFα cytotoxicity assay (WEHI-13VAR cells)” value (shortened to “IC50, TNFα cytotoxicity assay”) in assay [3] was 22.9 nM.

B2: MAb 699 (antibody, V domains shown)
VH: EVQLLESGGGLIQPGGSLRLSCAASGFTVSSNYMSWVRQAPGKGLEWVSVIYSGGSTYYADSVKGRFTISRDNAKNTVYLQMNSLRSEDTAVYYCARNYYGSTYDYWGQGTLVTVSS
VL: EIVLTQSPVTLSVPPGERASLSCRASQNIYTAVAWYQQKPGQAPRLLIYGASTRATGIPARFSGGGSGTDYTLTISSLESEDFAVYHCQQYHSWPLTFGGGTKLEIK
notes: also called 183 E9; H1273/L250
As to B2, the Affinity in assay [1] and in assay [2] was 7.3 nM in each case. In addition, the “IC50, TNFα cytotoxicity assay” value in assay [3] was found to be 350 nM.

B3: MAb 698 (antibody, V domains shown)
VH: EVQLLESGGGLIQPGGSLRLSCAASGFTVGNNYMSWVRQAPGKGLEWVSVIYSAGSTYYADSVKGRFIISRDNSKDTVYLQMNSLRVDDTAVYYCARNYYGSTYDYWGQGTLVTVSS
VL: EIVLTQSPVTLSVPPGERASLSCRASQNIYTAVAWYQQKPGQAPRLLIYGASTRATGIPARFSGGGSGTDYTLTISSLESEDFAVYHCQQYHSWPLTFGGGTKLEIK
notes: also called 131 E11; H1272/L250
For B3, the Affinity in assay [1] and in assay [2] was 2.3 nM throughout. For the same molecule, the “IC50, TNFα cytotoxicity assay” value in assay [3] is 152 nM.

B4: MAb 714 (antibody, V domains shown)
VH: EVQLVESGGGLVQPGGSLKLSCAASGFTVSSNYMSWVRQAPGKGLEWVSVIYRGGSTYYADSVKGRFTISRDISRNMVYLQMNSLRAEDTAVYYCARNYYGSTYDYWGQGTLVTVSS
VL: EIVLTQSPVTLSVPPGERASLSCRASQNIYTAVAWYQQKPGQAPRLLIYGASTRATGIPARFSGGGSGTDYTLTISSLESEDFAVYHCQQYHSWPLTFGGGTKLEIK
notes: also called 141 A10; H1277/L250
For the molecule B4, the Affinity in assay [1] and in assay [2] was 0.4 nM each time. For the same molecule, the “IC50, TNFα cytotoxicity assay” value in assay [3] was 7.75 nM.

B5: MAb 1007 (antibody, V domains shown)
VH: EVQLVESGGGLIQPGGSLRLSCAVSGLNVSRDYMSWVRQAPGKGLEWISVIYRGGATMYADSVKGRFTISRDTSKNTVFLQMSRLKVADTAVYYCARNYYGSTYDYWGQGTLVTVSS
VL: EIVLTQSPVTLSVPPGERASLSCRASQNIYTAVAWYQQKPGQAPRLLIYGASTRATGIPARFSGGGSGTDYTLTISSLESEDFAVYHCQQWHSWPLTFGGGTKLEIK
For B5, in assay [3], the “IC50, TNFα cytotoxicity assay” value was determined as 12.2 nM.

B6: MAb 696 (antibody, V domains shown)
VH: EVQLVESGGGLIQPGGSLRLSCAASGFTVSSNYMSWVRQAPGKGLEWVSVIYSGGRTYYADSVKGRFTISRDSSKNTLYLQMNSLRAEDTAVYYCARNYYGSTYDYWGQGTLVTVSS
VL: EIVLTQSPVTLSVPPGERASLSCRASQNIYTAVAWYQQKPGQAPRLLIYGASTRATGIPARFSGGGSGTDYTLTISSLESEDFAVYHCQQYHSWPLTFGGGTKLEIK
notes: also called 121 E1B; H1193/L250
With B6, the Affinity in assay [1] and in assay [2] was 0.6 nM in each case.

B7: MAb 715 (antibody, V domains shown)
VH: EVQLLESGGGLIQPGGSLRLSCAASGFTVSNNYMSWVRQAPGKGLQWVAVIYSGGSTYYPDSMKGRFTISRDNSKNTLYLQMNSLRAEDTAVYYCARNYYGSTYDYWGQGTLVTVSS
VL: EIVLTQSPVTLSVPPGERASLSCRASQNIYTAVAWYQQKPGQAPRLLIYGASTRATGIPARFSGGGSGTDYTLTISSLESEDFAVYHCQQYHSWPLTFGGGTKLEIK
notes: also called 141 F2; H1278/L250
Regarding B7, the Affinity in assay [1] and in assay [2] was 0.6 nM throughout. Besides, the “IC50, TNFα cytotoxicity assay” value in assay [3] worked out at 21.4 nM.
